Where two headings read alike, the source gives them in different places.

Experiment [1] has as its target T1, in house made human PD-1-Fc protein (human, biotin-labeled (sites not given)).
T1 construct: also called biotin-labeled human PD-1-Fc
Nature of the experiment: blocking FACS: biotin human PD-1-Fc + antibody on GS-C2/PD-L1 cells (competitor: cell-surface human PD-L1). The protocol: (§1) GS-C2/PDL1 cells were harvested from cell culture flasks at the log phase, washed twice and re-suspended in PBS containing 2% v/v Fetal Bovine Serum (FACS buffer). GS-C2/PD-L1 cells, 0.6×10⁵ cells per welt, were incubated in 96 well-plates with 100 the antibody/PD1-Fc mixture for 40 minutes at 4° C. Cells were washed twice with FACS buffer, added with 100 R-Phycoerythrin Streptavidin (1:500 dilution in FACS buffer, Cat#:016-110-084, Jackson Immunoresearch), and incubated for 40 minutes at 4° C. in dark. Cells were washed twice and re-suspended in FACS buffer. Fluorescence was measured using a Becton Dickinson FACS Canto II-HTS equipment. Data was analyzed using Graphpad Prism software and IC₅₀ values were reported.

Experiment [2] has as its target T2, cynomolgus PD-1-his protein (Cat#:PD1-05223, Acro biosystems Inc.) (cynomolgus, UniProt B0LAJ3 25-170).
T2 construct: Bought protein used in Biacore and indirect ELISA; also called monkey PD-1; Cyno PD-1
Nature of the experiment: indirect ELISA on coated cynomolgus PD-1-his. (In an ELISA, binding on a coated surface is turned into a signal by an enzyme label.)

Experiment [3] addresses T2, cynomolgus PD-1-his protein …. Nature of the experiment: SPR (Biacore T200), antibody captured on Protein G chip, PD-1-his in flow, 1:1 fit. In general terms: In SPR one partner is held on a chip, and binding of the other changes the refractive index at the surface.
The target of experiment [4] is T1, in house made human PD-1-Fc protein. Nature of the experiment: cell-based blocking FACS: antibody pre-mixed with biotin-labeled human PD-1-Fc, added to GS-C2/PD-L1 cells expressing human PD-L1 (blocked ligand); unit from the axis 'Con of mAb, nM.'. Here is the method:
as §1

Experiment [5] shares this target. As to the kind of experiment: competitive ELISA: antibody pre-mixed with biotin-labeled human PD-1-Fc, added to coated human PD-L1-Fc (blocked ligand); unit from the axis 'Con of mAb, nM.'. The protocol:
(§2) The activities of the anti-PD1 antibodies of the disclosure to block PD-L1-PD1 binding were measured in a competitive ELISA.
(§3) Briefly, 100 μl human PD-L1-Fc protein (prepared in-house with SEQ ID NO: 28) at 2 μg/mL in carbonate/bicarbonate buffer (pH 9.6) was coated on 96-well micro plates overnight at 4° C., Plates were washed with wash buffer (PBS+0.05% w/v Tween-20, PBST), and blocked with 5% w/v non-fatty milk in PBST for 2 hours at 37° C. […] After incubation at 37° C. for 40 minutes, plates were washed using wash buffer. […] Plates were washed again using wash buffer. Finally, TMB was added and the reaction was stopped using 1M H₂SO₄. The absorbance was read on a microplate reader using dual wavelength mode with 450 nm for TMB and 630 nm as the reference wavelength, then the OD (450-630) values were plotted against antibody concentrations. Data was analyzed using Graphpad Prism software and IC₅₀ values were reported.

The target is the same in experiment [6]. As to the kind of experiment: competitive ELISA: soluble Pembrolizumab pre-mixed with biotin-labeled human PD-1-Fc, added to coated Pembrolizumab (self-competition); unit from the axis 'Con of mAb, nM.'.
For experiment [7] the target is unchanged. Nature of the experiment: capture ELISA: antibody captured on anti-human IgG coated plate, biotin-labeled human PD-1-Fc detected with streptavidin-HRP; unit from the axis 'Con of mAb, nM.'.
Experiment [8] has as its target T2, cynomolgus PD-1-his protein …. Nature of the experiment: indirect ELISA on coated cynomolgus PD-1-his; unit from the axis 'Con of mAb, nM.'. The protocol:
(§4) Briefly, 96-well micro plates were coated with 100 μl 2 μg/ml mouse PD-1-his (Cat#:50124-M08H, Sino Biological Inc) or 2 μg,/ml cynomolgus PD-1-his (Cat#:PD1-05223, Acro biosystems Inc.) in carbonate/bicarbonate buffer (pH 9.6) for 2 hours at 37° C. Plates were washed once with wash buffer (PBST, PBS+0.05% Tween-20) and then blocked with 200 μl blocking buffer (5% w/v non-fatty milk in PBST) for 2 hours at 37° C. […] ELISA plates were washed 4 times and incubated with Peroxidase AffiniPure goat anti-mouse IgG, Fcγ Fragment Specific (1:5000 dilution in PBST buffer, Cat#:115-035-071, Jackson ImmunoResearch Laboratories, Inc., 100 μl/well) or Peroxidase AffiniPure F(ab′)₂ Fragment Goat Anti-Human IgG, Fcγ fragment specific (Cat#:109-036-098, Jackson ImmunoResearch, for the controls) for 40 minutes at 37° C. After a final wash, plates were incubated with 100 μl/well TMB (Cat#:TMB-S-002, innoreagents) at room temperature. The reaction was stopped 3-10 minutes later with 50 μl/well 1M H₂SO₄, and the absorbance was read on a microplate reader using dual wavelength mode with 450 nm for TMB and 630 nm as the reference wavelength. Then the OD (450-630) values were plotted against antibody concentrations. Data was analyzed using GraphPad Prism software and EC₅₀ values were reported.

Experiment [9] addresses T1, in house made human PD-1-Fc protein. Nature of the experiment: capture ELISA: antibody captured on anti-human IgG coated plate, biotin-labeled human PD-1-Fc detected with streptavidin-HRP; unit from the axis 'Con of mAb, nM.'. The source holds these as a separate data set.
Experiment [10] shares this target. Nature of the experiment: competitive ELISA: soluble Pembrolizumab pre-mixed with biotin-labeled human PD-1-Fc, added to coated Pembrolizumab (self-competition); unit from the axis 'Con of mAb, nM.'. The source holds these as a separate data set.
In experiment [11] the target is T2, cynomolgus PD-1-his protein …. Nature of the experiment: indirect ELISA on coated cynomolgus PD-1-his; unit from the axis 'Con of mAb, nM.'. Here is the method:
as §4
This is another data set of the same source.

Experiment [12] concerns the target T1, in house made human PD-1-Fc protein. As to the kind of experiment: competitive ELISA: antibody pre-mixed with biotin-labeled human PD-1-Fc, added to coated human PD-L1-Fc (blocked ligand); unit from the axis 'Con of mAb, nM.'. Here is the method: as §2, §3
The source holds these as a separate data set.

The target in experiment [13] is T3, human PD-1-his protein (Cat#:PD1-H5221, Acro biosystems Inc.) (human, UniProt Q15116 25-167).
T3 construct: not shown: his tag
As to the kind of experiment: BLI (Octet RED96), cell supernatant antibody captured on AHC sensor, human PD-1-his in solution. The protocol:
Briefly, AHC biosensors (anti-human IgG Fe capture, from ForteBio) were presoaked with 10 mM glycine (pH 1.5) for 3 seconds, and then dipped in a well with running buffer (0.5% w/v BSA in PBST) for 3 seconds, the soaking and dipping steps were repeated for three times. […] A new baseline was run for 100 seconds in another well with running buffer. Then the sensors were dipped in a well with serially diluted human PD-1-his protein (Cat#:PD1-H5221, Acro biosystems Inc., starting at 100 nM with a two-fold serial dilution) in running buffer for 120 seconds, and then immersed in a baseline well for […]. Finally, sensors were presoaked with 10 mM glycine (pH 1.5) for 30 seconds, and then were dipped in a well with running buffer for 30 seconds. The association and dissociation curves were fit to a 1:1 Langmuir binding model using ForteBio Data Analysis 8.1 evaluation software.
For orientation: Biolayer interferometry detects binding as a change in optical thickness at a sensor tip.

B1: Nivolumab (antibody, V domains shown)
VH: QVQLVESGGGVVQPGRSLRLDCKASGITFSNSGMHWVRQAPGKGLEWVAVIWYDGSKRYYADSVKGRFTISRDNSKNTLFLQMNSLRAEDTAVYYCATNDDYWGQGTLVTVSS
VL: EIVLTQSPATLSLSPGERATLSCRASQSVSSYLAWYQQKPGQAPRLLIYDASNRATGIPARFSGSGSGTDFTLTISSLEPEDFAVYYCQQSSNWPRTFGQGTKVEIK
With B1, the IC50 in experiment [1] stood at 0.52 nM. This molecule also showed an EC50 in [2] of 0.23 nM. Moreover, in experiment [3], binding was put at a Kd of 5.64 nM.

B2: Pembrolizumab (antibody, V domains shown)
VH: QVQLVQSGVEVKKPGASVKVSCKASGYTFTNYYMYWVRQAPGQGLEWMGGINPSNGGTNFNEKFKNRVTLTTDSSTTTAYMELKSLQFDDTAVYYCARRDYRFDMGFDYWGQGTTVTVSS
VL: EIVLTQSPATLSLSPGERATLSCRASKGVSTSGYSYLHWYQQKPGQAPRLLIYLASYLESGVPARFSGSGSGTDFTLTISSLEPEDFAVYYCQHSRDLPLTFGGGTKVEIKR
Consider B2, for which the IC50 in experiment [4] was found to be 0.32 nM; in experiment [5] it was 0.345 nM; in experiment [1], 0.49 nM; in [6], 0.0735 nM; in experiment [10], 0.0759 nM; in experiment [12], 0.37 nM. Moreover, the EC50 in experiment [7] came out at 0.118 nM; in experiment [8] it was 0.093 nM; in experiment [2], 0.2 nM; in experiment [9] it was 0.113 nM; in [11] it was 0.0957 nM.

B3: humanized antibody huE1A9C8A7-V3 (antibody, human IgG4 S228P, kappa, V domains shown)
VH: QVQLVQSGAEVVKPGASVKISCKASGYTFSDYVMHWVRQAPGQSLEWIGVISTYHIPAVYNQKFKGKATMTVDKSTSTVYLELSSLRSEDTAVYYCAREVYGDSYYFDVWGQGTTVTVSS
VL: DIVMTQTPLSLPVTPGEPASISCRSSQSIVHSNGNTYLEWYLQKPGQSPQLLIYKVSNRFSGVPDRFSGSGSGTDFTLKISRVEAEDVGVYYCFQGSHVPYTFGGGTKVEIKR
notes: Human IgG4/kappa
Regarding B3, the binding result in [13] is listed as “no binding (tested: antigen series starting at 100 nM)”.

The term IC50 denotes the concentration at which inhibition is half-maximal. One may read the EC50 as the midpoint of the concentration-response curve. As a reminder, the Kd is the concentration at which binding is half-saturated. A higher Kd goes with a looser complex.

These data come from patent publication US20230331848A1 (BIOSION, published 2023).
